Experimental data: patent publication US20240390422A1 (QUELL THERAPEUTICS, published 2024)

T1: Biotinylated Human TREM2 Protein,His,Avitag (TR2-H82E7, ACRObiosystems) (human, UniProt Q9NZC2 19-174, biotinylated (Avitag))
T1 construct: Bought protein; also called huTREM2,Biotin,His,Avitag; Biotinylated human TREM2 protein with a streptavidin tag; not shown: His tag and Avitag
T1 sequence (looked up): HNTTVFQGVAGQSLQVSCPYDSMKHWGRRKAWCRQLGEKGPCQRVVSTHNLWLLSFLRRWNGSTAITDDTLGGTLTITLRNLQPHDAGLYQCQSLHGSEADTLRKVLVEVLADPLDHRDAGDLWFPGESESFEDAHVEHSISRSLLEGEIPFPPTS

B1: construct 3 (anti-TREM2 CAR comprising a TREM2 scFv) (other)
chain: EVQLVQSGAEVKKPGESLKISCKGSGYTFTSYWIGWVRQMPGKGLEWMGIIYPGDSDTRYSPSFQGQVTISVDKSSSTAYLQWSSLKASDTAIYYCTRQAIAVTGLGGFDPWGQGTLVTVSSGGGGSGGGGSGGGGSEIVLTQSPGTLSLSPGERATLSCRASQSVSSSYLAWYQQKPGQAPRLLIYGASSRATGIPDRFSGSGSGTDFTLTISRLEPEDFALYYCQQYDTSPFTFGPGTKVDIKLRVFSSVVPVLQKVNSTTTKPVLRTPSPVHPTGTSQPQRPEDCRPRGSVKGTGLDFACDIYIWAPLAGICVALLLSLIITLICYHRQLWTNSRRNRLLQSDYMNMTPRRPGLTRKPYQPYAPARDFAAYRPRAKFSRSAETAANLQDPNQLYNELNLGRREEYDVLEKKRARDPEMGGKQQRRRNPQEGVYNALQKDKMAEAYSEIGTKGERRRGKGHDGLYQGLSTATKDTYDALHMQTLAPR
notes: Chimeric antigen receptor with an anti-TREM2 scFv, expressed on the surface of Jurkat NFAT cells or murine Tregs after retroviral transduction; the construct also encodes GFP
B2: construct 7 (anti-TREM2 CAR comprising a TREM2 scFv) (other)
chain: QVQLQQSGPGLVKPSQTLSLTCAISGDSVSSSSAAWNWIRQSPSRGLEWLGHIGYRSKWYNEYAVSVKSRITINPDTSKNQFSLQLNSVTPEDTAVYYCARGMYGSVPYKEGYYFDIWGQGTLVTVSSGGGGSGGGGSGGGGSDIQMTQSPSSLSASVGDRVTITCRASQGISSDLNWYQQKPGKAPKLLIYAASNLQSGVPSRFSGSGSGTDFTLTISSLQPEDFATYYCQQYTDESMTFGQGTKVEIKLRVFSSVVPVLQKVNSTTTKPVLRTPSPVHPTGTSQPQRPEDCRPRGSVKGTGLDFACDIYIWAPLAGICVALLLSLIITLICYHRQLWTNSRRNRLLQSDYMNMTPRRPGLTRKPYQPYAPARDFAAYRPRAKFSRSAETAANLQDPNQLYNELNLGRREEYDVLEKKRARDPEMGGKQQRRRNPQEGVYNALQKDKMAEAYSEIGTKGERRRGKGHDGLYQGLSTATKDTYDALHMQTLAPR
notes: as for B1
B3: construct 8 (anti-TREM2 CAR comprising a TREM2 scFv) (other)
chain: QVQLVQSGAEVKKPGASVKVSCKASGYTFTGYHMSWVRQAPGQGLEWMGVINPVSGNTVYAQKFQGRVTMTRDTSISTAYMELSRLRSEDTAVYYCARIPSYTYAFDYWGQGTLVTVSSGGGGSGGGGSGGGGSDIQMTQSPSSLSASVGDRVTITCRASQDISNYLAWYQQKPGKAPKLLIYRASSLQSGVPSRFSGSGSGTDFTLTISSLQPEDFATYYCQQHGHSPTTFGQGTKVEIKLRVFSSVVPVLQKVNSTTTKPVLRTPSPVHPTGTSQPQRPEDCRPRGSVKGTGLDFACDIYIWAPLAGICVALLLSLIITLICYHRQLWTNSRRNRLLQSDYMNMTPRRPGLTRKPYQPYAPARDFAAYRPRAKFSRSAETAANLQDPNQLYNELNLGRREEYDVLEKKRARDPEMGGKQQRRRNPQEGVYNALQKDKMAEAYSEIGTKGERRRGKGHDGLYQGLSTATKDTYDALHMQTLAPR
notes: the construct also encodes GFP
B4: construct 10 (anti-TREM2 CAR comprising a TREM2 scFv) (other)
chain: EVQLLESGGGLVQPGGSLRLSCAASGFTFSNYYMAWVRQAPGKGLEWVSSLTNSGGSTYYADSVKGRFTISRDNSKNTLYLQMNSLRAEDTAVYYCTREWAGSGYFDYWGQGTLVTVSSGGGGSGGGGSGGGGSDIQMTQSPSSLSASVGDRVTMTCKASQNVGNNLAWYQQKPGKAPKLLLYYTSNRFTGVPSRFSGSGSGTDFTLTISSVQPEDFATYYCQRIYNSPWTFGQGTKLELKLRVFSSVVPVLQKVNSTTTKPVLRTPSPVHPTGTSQPQRPEDCRPRGSVKGTGLDFACDIYIWAPLAGICVALLLSLIITLICYHRQLWTNSRRNRLLQSDYMNMTPRRPGLTRKPYQPYAPARDFAAYRPRAKFSRSAETAANLQDPNQLYNELNLGRREEYDVLEKKRARDPEMGGKQQRRRNPQEGVYNALQKDKMAEAYSEIGTKGERRRGKGHDGLYQGLSTATKDTYDALHMQTLAPR
notes: as for B1

Biological target: T1, Biotinylated Human TREM2 …
Experiment: flow cytometry: CAR-transduced Jurkat NFAT cells stained with Biotinylated Human TREM2 Protein and Streptavidin APC; also sorted with the protein and streptavidin beads
From the text: Constructs 3, 7, 8 and 10 are all constructs of the present invention, which comprise a CAR comprising a TREM2 scFv. Non-transduced cells (mock) and transduced cells were collected and stained for flow cytometry using Biotinylated Human TREM2 Protein (TR2-H82E7 ACRObiosystems) and Streptavidin APC as a secondary antibody. Cells were sorted using Streptavidin magnetic beads, columns (miltenyi) and Biotinylated Human TREM2 Protein (TR2-H82E7 ACRObiosystems).
On day 4 after transduction, Jurkat NFAT cells were stained for surface expression of the anti-TREM2 CARs using Biotinylated Human TREM2 Protein (TR2-H82E7 ACRObiosystems) and Streptavidin-APC as a secondary antibody. On day 7, CAR expressing cells were selected using Streptavidin magnetic beads (Streptavidin MicroBeads, 130-048-101, Miltenyi), columns (Miltenyi) and Biotinylated Human TREM2 Protein (TR2-H82E7 ACRObiosystems) and then used for subsequent activation assays.

Binder	binding result
B1	binds
B2	binds
B3	binds
B4	binds
